Assay results reported in the RNAGym collection of RNA variant scans (doi:10.1093/molbev/msab373).

B1: Azoarcus group I ribozyme (parent)
chain: GUGCCUUGCGCCGGGAAACCACGCAAGGGAUGGUGUCAAAUUCGGCGAAACCUAAGCGCCCGCCCGGGCGUAUGGCAACGCCGAGCCAAGCUUCGGCGCCUGCGCCGAUGAAGGUGUAGAGACUAGACGGCACCCACCUAAGGCAAACGCUAUGGUGAAGGCAUAGUCCAGGGAGUGGCGAAAGUCACACAAACCGG

Variants of: B1
Assay: reverse-splicing fitness (ratio to wild type); higher = more active; in vitro selection; Mg2+ level not given
Method in brief: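 An in vitro group I ribozyme library with randomized positions was T7-transcribed and gel-purified. In triplicate, 10 pmol RNA in EPPS pH 7.5 was reacted with 50 pmoles of a 30-nt RNA substrate for 1 h at 37 °C across several added MgCl2 levels (1–48 mM), then stopped with EDTA. Products were reverse transcribed from a substrate-complementary primer, PCR-amplified and sequenced (HiSeq 4000). Fitness is a variant's read proportion after selection over that before, normalised to wild type.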

Variant	reverse-splicing fitness
GUGCCUUGCGCCGGGAAACCACGCAAGGGAUGGUGUCAAAUUCGGCGAAACCUAAGCGCCCGCCCGGGCGUAUGGCAACGCCGAGCCAAGCUUCGGCGCCUGCGCCGAUGGAGGUGUAGCGACUAGACGGCACCCACCUAAGGCGAACGAUAUGGUGAAGGCAUAGUCGAGGGAGGGGCGAAAGUCACACAAACCGG [A111G A120C A145G C150A C169G U176G]	0.00551
GUGCCUUGCGCCGGGAAACCACGCAAGGGAUGGUGUCAAAUUCGGCGAAACCUAAGCGCCCGCCCGGGCGUAUGGCAACGCCGAGCCAAGCUUCGGCGCCUGCGCCGAUGGAGGUGUAGCGACUAGACGGCACCCACCUAAGGCGAACGGUAUGGUGAAGGCAUAGUCCAGGGAGCGGCGAAAGUCACACAAACCGG [A111G A120C A145G C150G U176C]	0.0262
GUGCCUUGCGCCGGGAAACCACGCAAGGGAUGGUGUCAAAUUCGGCGAAACCUAAGCGCCCGCCCGGGCGUAUGGCAACGCCGAGCCAAGCUUCGGCGCCUGCGCCGAUGGAGGUGUAGCGACUAGACGGCACCCACCUAAGGCGAACGGUAUGGUGAAGGCAUAGUCCAGGGAGAGGCGAAAGUCACACAAACCGG [A111G A120C A145G C150G U176A]	0.0105
GUGCCUUGCGCCGGGAAACCACGCAAGGGAUGGUGUCAAAUUCGGCGAAACCUAAGCGCCCGCCCGGGCGUAUGGCAACGCCGAGCCAAGCUUCGGCGCCUGCGCCGAUGGAGGUGUAGCGACUAGACGGCACCCACCUAAGGCGAACGGUAUGGUGAAGGCAUAGUCAAGGGAGGGGCGAAAGUCACACAAACCGG [A111G A120C A145G C150G C169A U176G]	0.00623
GUGCCUUGCGCCGGGAAACCACGCAAGGGAUGGUGUCAAAUUCGGCGAAACCUAAGCGCCCGCCCGGGCGUAUGGCAACGCCGAGCCAAGCUUCGGCGCCUGCGCCGAUGGAGGUGUAGCGACUAGACGGCACCCACCUAAGGCGAACGGUAUGGUGAAGGCAUAGUCAAGGGAGCGGCGAAAGUCACACAAACCGG [A111G A120C A145G C150G C169A U176C]	0.0102
GUGCCUUGCGCCGGGAAACCACGCAAGGGAUGGUGUCAAAUUCGGCGAAACCUAAGCGCCCGCCCGGGCGUAUGGCAACGCCGAGCCAAGCUUCGGCGCCUGCGCCGAUGGAGGUGUAGCGACUAGACGGCACCCACCUAAGGCGAACGGUAUGGUGAAGGCAUAGUCAAGGGAGAGGCGAAAGUCACACAAACCGG [A111G A120C A145G C150G C169A U176A]	0.00955
GUGCCUUGCGCCGGGAAACCACGCAAGGGAUGGUGUCAAAUUCGGCGAAACCUAAGCGCCCGCCCGGGCGUAUGGCAACGCCGAGCCAAGCUUCGGCGCCUGCGCCGAUGGAGGUGUAGCGACUAGACGGCACCCACCUAAGGCGAACGGUAUGGUGAAGGCAUAGUCGAGGGAGUGGCGAAAGUCACACAAACCGG [A111G A120C A145G C150G C169G]	0.0082
GUGCCUUGCGCCGGGAAACCACGCAAGGGAUGGUGUCAAAUUCGGCGAAACCUAAGCGCCCGCCCGGGCGUAUGGCAACGCCGAGCCAAGCUUCGGCGCCUGCGCCGAUGGAGGUGUAGCGACUAGACGGCACCCACCUAAGGCGAACGGUAUGGUGAAGGCAUAGUCAAGGGAGUGGCGAAAGUCACACAAACCGG [A111G A120C A145G C150G C169A]	0.00936
GUGCCUUGCGCCGGGAAACCACGCAAGGGAUGGUGUCAAAUUCGGCGAAACCUAAGCGCCCGCCCGGGCGUAUGGCAACGCCGAGCCAAGCUUCGGCGCCUGCGCCGAUGGAGGUGUAGCGACUAGACGGCACCCACCUAAGGCGAACGGUAUGGUGAAGGCAUAGUCUAGGGAGUGGCGAAAGUCACACAAACCGG [A111G A120C A145G C150G C169U]	0.0255
GUGCCUUGCGCCGGGAAACCACGCAAGGGAUGGUGUCAAAUUCGGCGAAACCUAAGCGCCCGCCCGGGCGUAUGGCAACGCCGAGCCAAGCUUCGGCGCCUGCGCCGAUGGAGGUGUAGCGACUAGACGGCACCCACCUAAGGCGAACGAUAUGGUGAAGGCAUAGUCUAGGGAGUGGCGAAAGUCACACAAACCGG [A111G A120C A145G C150A C169U]	0.0508
GUGCCUUGCGCCGGGAAACCACGCAAGGGAUGGUGUCAAAUUCGGCGAAACCUAAGCGCCCGCCCGGGCGUAUGGCAACGCCGAGCCAAGCUUCGGCGCCUGCGCCGAUGGAGGUGUAGCGACUAGACGGCACCCACCUAAGGCGAACGAUAUGGUGAAGGCAUAGUCGAGGGAGUGGCGAAAGUCACACAAACCGG [A111G A120C A145G C150A C169G]	0.0108
GUGCCUUGCGCCGGGAAACCACGCAAGGGAUGGUGUCAAAUUCGGCGAAACCUAAGCGCCCGCCCGGGCGUAUGGCAACGCCGAGCCAAGCUUCGGCGCCUGCGCCGAUGGAGGUGUAGCGACUAGACGGCACCCACCUAAGGCGAACGAUAUGGUGAAGGCAUAGUCAAGGGAGUGGCGAAAGUCACACAAACCGG [A111G A120C A145G C150A C169A]	0.0114
GUGCCUUGCGCCGGGAAACCACGCAAGGGAUGGUGUCAAAUUCGGCGAAACCUAAGCGCCCGCCCGGGCGUAUGGCAACGCCGAGCCAAGCUUCGGCGCCUGCGCCGAUGGAGGUGUAGCGACUAGACGGCACCCACCUAAGGCGAACGGUAUGGUGAAGGCAUAGUCUAGGGAGCGGCGAAAGUCACACAAACCGG [A111G A120C A145G C150G C169U U176C]	0.0116
GUGCCUUGCGCCGGGAAACCACGCAAGGGAUGGUGUCAAAUUCGGCGAAACCUAAGCGCCCGCCCGGGCGUAUGGCAACGCCGAGCCAAGCUUCGGCGCCUGCGCCGAUGGAGGUGUAGCGACUAGACGGCACCCACCUAAGGCGAACGGUAUGGUGAAGGCAUAGUCUAGGGAGAGGCGAAAGUCACACAAACCGG [A111G A120C A145G C150G C169U U176A]	0.00706
GUGCCUUGCGCCGGGAAACCACGCAAGGGAUGGUGUCAAAUUCGGCGAAACCUAAGCGCCCGCCCGGGCGUAUGGCAACGCCGAGCCAAGCUUCGGCGCCUGCGCCGAUGGAGGUGUAGCGACUAGACGGCACCCACCUAAGGCGAACGGUAUGGUGAAGGCAUAGUCUAGGGAGGGGCGAAAGUCACACAAACCGG [A111G A120C A145G C150G C169U U176G]	0.00458
